Test results taken from publication PMC10858482, “Computational design and engineering of self-assembling multivalent microproteins with therapeutic potential against SARS-CoV-2” (Journal of Nanobiotechnology, 2024).

Molecular target: T1, RBD of the S protein of SARS-CoV-2 (Omicron BA.1) (SARS-CoV-2 Omicron BA.1, strain)
T1 construct: also called RBD (Omicron BA.1)
Test: BLI; Octet RED96e; RBD (Omicron BA.1) immobilised on streptavidin (SA) biosensors; analyte 500-31.25 nM Nb67 or 100-3.125 nM Tr67 in 1x PBS, 0.02% Tween-20, 0.1% BSA; association 1 min, dissociation 3 min; 1:1 binding model
Conditions: both partners purified

B1: nanobody Nb67 (VHH)
VHH: EVQLVESGGGLVQTGGSLRLSCALSGYTFSIFPTAWFRQAPGKEREFVAGIRWNGSTRDYTEYADFVKGRFTISRDNAKNMVYLQMISLKPEDTALYYCAASDGVIDGTNANAYRYWGQGTQVTVSS
notes: also called monovalent Nb67
B1 showed a Kd of 15.2 nM.
